Laboratory results from the supplement of paper PMC10567573.

B1: PLAGL1 (parent)
chain: EKPPSGTKEKKHQCDHCERCFYTR

Variants of: B1
Assay: protein stability index of a GFP-peptide fusion (GPS, HEK-293T) (PSI 1-6); higher = more stable
Conditions: c terminus: a fixed tail appended
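Note: lentivirally expressed fusions sorted by FACS into six bins by GFP to DsRed ratio, PSI derived from sequencing read proportions per bin multiplied by bin number.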

Protein stability index of substitutions, site by site:
C17: H 3.67, W 3.13, Q 3.9, P 4.33, G 3.43, L 4, E 3.69, F 3.4, M 3.63, A 3.71, D 3.97
H16: K 4.02, E 4.17, F 3.5, R 3.49, S 4.13, T 3.66, L 3.51, V 3.08, Q 3.82, Y 2.59, M 3.66, P 3.94, W 2.9, N 4.72, D 4.02, G 4.67, A 4.15, C 2.52, I 2.76
H12: A 2.44, T 3.24, V 1.99, R 2.17, Q 3.23, L 2.55, K 3.55, F 2.39, D 3.09, I 2.6, G 2.42, N 2.52, E 3.04, C 4.59, Y 2.15, M 2.28, P 2.2, W 1.89, S 2.88
E9: W 3.08, Y 2.6, T 3.51, V 3.37
K11: T 3.84, W 4.32, F 3.67, G 4.29, V 3.86, A 3.73, N 3.63, L 3.97, Y 3.81, S 3.79, Q 4.28, R 3.71, H 4.06, E 4.6, P 3.59, M 4.04, I 3.71, D 4.99
E18: L 2.87, C 2.69, I 2.63, Q 2.45, H 3.33, D 3.12, A 3.18, P 4.7, N 2.94, G 3.22, M 2.6, K 2.58, F 2.61
